Data: the Immune Epitope Database (IEDB)

Key:
HLA-B*15:42 = assay: IEDB peptide-MHC binding, purified MHC/competitive/fluorescence; filed as Kd, often an IC50 or EC50 that approximates it; ≥ and ≤ were set here for values at or beyond the usual limits of such assays
HLA-B*45:06 = assay: as above
HLA-B*83:01 = assay: as above; conditions: source organism: human gammaherpesvirus 4
HLA-A*11:01 [1] = assay: IEDB peptide-MHC binding, purified MHC/direct/fluorescence; filed as Kd, often an IC50 or EC50 that approximates it; ≥ and ≤ were set here for values at or beyond the usual limits of such assays
HLA-A*31:01 = assay: IEDB peptide-MHC binding, purified MHC/competitive/fluorescence; filed as Kd, often an IC50 or EC50 that approximates it; ≥ and ≤ were set here for values at or beyond the usual limits of such assays
HLA-A*11:01 [2] = assay: IEDB peptide-MHC binding, purified MHC/competitive/fluorescence; ≥ and ≤ were set here for values at or beyond the usual limits of such assays
HLA-B*15:09 = assay: IEDB peptide-MHC binding, purified MHC/direct/fluorescence; filed as Kd, often an IC50 or EC50 that approximates it; ≥ and ≤ were set here for values at or beyond the usual limits of such assays; conditions: source organism: Burkholderia mallei ATCC 23344
HLA-A*02:01 [3] = assay: IEDB peptide-MHC binding, purified MHC/competitive/radioactivity; filed as Kd, often an IC50 or EC50 that approximates it; ≥ and ≤ were set here for values at or beyond the usual limits of such assays
HLA-A*02:03 = assay: as above; conditions: source organism: Dengue virus 2 Jamaica/1409/1983
HLA-A*02:06 = assay: as above
HLA-A*02:17 = assay: as above
HLA-A*68:02 = assay: as above
HLA-A*02:01 [4] = assay: IEDB peptide-MHC binding, purified MHC/direct/fluorescence; filed as Kd, often an IC50 or EC50 that approximates it; ≥ and ≤ were set here for values at or beyond the usual limits of such assays; conditions: source organism: Tetraodon nigroviridis
HLA-A*26:01 = assay: IEDB peptide-MHC binding, purified MHC/competitive/fluorescence; filed as Kd, often an IC50 or EC50 that approximates it; ≥ and ≤ were set here for values at or beyond the usual limits of such assays
HLA-A*69:01 = assay: as above
HLA-B*15:01 = assay: as above; conditions: source organism: Homo sapiens
HLA-B*15:17 = assay: as above
HLA-B*18:01 = assay: as above
HLA-B*27:03 = assay: as above
HLA-B*39:01 = assay: as above
HLA-B*46:01 = assay: as above
HLA-B*51:01 = assay: as above
HLA-B*57:01 = assay: as above
HLA-A*03:01 [5] = assay: as above
HLA-A*68:01 = assay: IEDB peptide-MHC binding, purified MHC/competitive/radioactivity; filed as Kd, often an IC50 or EC50 that approximates it; ≥ and ≤ were set here for values at or beyond the usual limits of such assays; conditions: source organism: Dengue virus 2 Jamaica/1409/1983
HLA-A*02:01 [6] = assay: IEDB peptide-MHC binding, purified MHC/competitive/fluorescence; filed as Kd, often an IC50 or EC50 that approximates it; ≥ and ≤ were set here for values at or beyond the usual limits of such assays; conditions: source organism: Escherichia coli 536
HLA-A*02:01 [7] = assay: IEDB peptide-MHC binding, purified MHC/competitive/fluorescence; ≥ and ≤ were set here for values at or beyond the usual limits of such assays; conditions: source organism: Sudan ebolavirus
HLA-A*24:02 = assay: as above; conditions: source organism: Sudan ebolavirus
HLA-A*03:01 [8] = assay: IEDB peptide-MHC binding, purified MHC/direct/fluorescence; filed as Kd, often an IC50 or EC50 that approximates it; ≥ and ≤ were set here for values at or beyond the usual limits of such assays
HLA-B*08:01 = assay: IEDB peptide-MHC binding, purified MHC/competitive/radioactivity; filed as Kd, often an IC50 or EC50 that approximates it; ≥ and ≤ were set here for values at or beyond the usual limits of such assays; conditions: source organism: Dengue virus 3 Singapore/8120/1995
[9] = source organism: human gammaherpesvirus 4
[10] = source organism: West Nile virus
[11] = source organism: Sudan ebolavirus
[12] = source organism: Dengue virus 2 Jamaica/1409/1983
[13] = source organism: Dengue virus 3 China/80-2/1980
[14] = source organism: Dengue virus 3 Singapore/8120/1995
[15] = source organism: Influenza A virus (A/Memphis/1/1978(H1N1))
[16] = source organism: Dengue virus 1 Singapore/S275/1990
[17] = source organism: Dengue virus 1 Brazil/97-11/1997
[18] = source organism: Escherichia coli 536
[19] = source organism: Bacillus cereus G9241
[20] = source organism: Dengue virus 4 Dominica/814669/1981
[21] = source organism: Coxiella burnetii
[22] = source organism: Influenza A virus (A/Viet Nam/HN/2004(H5N1))
[23] = source organism: Yersinia pestis
[24] = source organism: Yersinia pestis FV-1

SQAAFGLPI
Kd (HLA-B*15:42; [9]): ≥ 5000 nM
Kd (HLA-B*45:06; [9]): 600 nM
Kd (HLA-B*83:01): ≥ 5000 nM

VLRKRWTAK
Kd (HLA-A*11:01 [1]; [10]): ≥ 20000 nM
Kd (HLA-A*31:01; [10]): 58.6 nM

FGGFSTLDK
IC50 (HLA-A*11:01 [2]; source organism: Variola virus): ≥ 77700 nM

GEELPTVVL
Kd (HLA-B*15:09): ≥ 20000 nM

ISKSMRDQR
IC50 (HLA-A*11:01 [2]; source organism: Variola virus): 23300 nM

SATKRWGFR
IC50 (HLA-A*11:01 [2]; [11]): ≥ 119000 nM

LVISGVFPV
Kd (HLA-A*02:01 [3]; [12]): 29.3 nM
Kd (HLA-A*02:03): 14.1 nM
Kd (HLA-A*02:06; [12]): 1.65 nM
Kd (HLA-A*02:17; [12]): 1.96 nM
Kd (HLA-A*68:02; [12]): 0.37 nM

FVGKTVWFV
Kd (HLA-A*02:01 [3]; [13]): 4.65 nM
Kd (HLA-A*02:06; [14]): 8.76 nM
Kd (HLA-A*02:17; [13]): 28.7 nM
Kd (HLA-A*68:02; [14]): 1.85 nM

FMDPGIFPR
Kd (HLA-A*02:01 [4]): 9.9 nM
Kd (HLA-A*26:01; source organism: Homo sapiens): ≥ 20000 nM
Kd (HLA-A*69:01; source organism: Homo sapiens): ≥ 20000 nM
Kd (HLA-B*15:01): ≥ 20000 nM
Kd (HLA-B*15:17; source organism: Homo sapiens): ≥ 20000 nM
Kd (HLA-B*18:01; source organism: Homo sapiens): ≥ 20000 nM
Kd (HLA-B*27:03; source organism: Homo sapiens): ≥ 20000 nM
Kd (HLA-B*39:01; source organism: Homo sapiens): ≥ 20000 nM
Kd (HLA-B*46:01; source organism: Homo sapiens): ≥ 20000 nM
Kd (HLA-B*51:01; source organism: Homo sapiens): ≥ 20000 nM
Kd (HLA-B*57:01; source organism: Homo sapiens): ≥ 20000 nM

RLFKHGLKR
Kd (HLA-A*03:01 [5]; [15]): 7.9 nM
Kd (HLA-A*31:01; [15]): 14.5 nM

LVMAFIAFL
Kd (HLA-A*02:01 [3]; [16]): 40.1 nM
Kd (HLA-A*02:06; [17]): 14.3 nM
Kd (HLA-A*02:17; [16]): 15.4 nM
Kd (HLA-A*68:02; [17]): 21 nM

TVNPIVTEK
Kd (HLA-A*11:01 [1]; source organism: Dengue virus): 2.3 nM
Kd (HLA-A*31:01; source organism: dengue virus type 2): 14500 nM
Kd (HLA-A*68:01): 26.5 nM

RAMDVYCHR
Kd (HLA-A*02:01 [6]): ≥ 20000 nM
Kd (HLA-A*26:01; [18]): ≥ 20000 nM
Kd (HLA-A*69:01; [18]): ≥ 20000 nM
Kd (HLA-B*15:17; [18]): ≥ 20000 nM
Kd (HLA-B*18:01; [18]): ≥ 20000 nM
Kd (HLA-B*27:03; [18]): ≥ 20000 nM
Kd (HLA-B*39:01; [18]): ≥ 20000 nM
Kd (HLA-B*46:01; [18]): ≥ 20000 nM
Kd (HLA-B*51:01; [18]): ≥ 20000 nM
Kd (HLA-B*57:01; [18]): ≥ 20000 nM

MLYDRINLR
Kd (HLA-A*03:01 [5]; [19]): 10.7 nM
Kd (HLA-A*31:01; [19]): 3.4 nM

AIDFLLRRW
IC50 (HLA-A*02:01 [7]): 55200 nM
IC50 (HLA-A*11:01 [2]; [11]): ≥ 156000 nM
IC50 (HLA-A*24:02): 38700 nM

LSMGLITIAV
Kd (HLA-A*02:01 [3]; [20]): 79.6 nM
Kd (HLA-A*02:06; [20]): 30.5 nM
Kd (HLA-A*02:17; [20]): 2410 nM
Kd (HLA-A*68:02; [20]): 78.7 nM

TTPMMIQTR
IC50 (HLA-A*11:01 [2]; source organism: Vaccinia virus): 46100 nM

SQIRRFNLR
Kd (HLA-A*03:01 [8]; [21]): 1230 nM
Kd (HLA-A*11:01 [1]; [21]): 13.6 nM
Kd (HLA-A*31:01; source organism: Pseudomonas putida F1): 1.02 nM

GTFGPVHFR
Kd (HLA-A*03:01 [8]; [22]): 26 nM
Kd (HLA-A*11:01 [1]; [22]): 1.6 nM
Kd (HLA-A*31:01; source organism: Influenza A virus H3N2): ≤ 1 nM

GMLWMADVPL
Kd (HLA-A*02:01 [3]; [13]): 4.89 nM
Kd (HLA-A*02:17; [13]): 65.3 nM
Kd (HLA-B*08:01): 1420 nM

SVQWFRLPR
Kd (HLA-A*03:01 [8]; [23]): 582 nM
Kd (HLA-A*11:01 [1]; [23]): ≤ 1 nM
Kd (HLA-A*31:01; [24]): ≤ 0.1 nM
Kd (HLA-B*15:42; [24]): ≥ 5000 nM
Kd (HLA-B*45:06; [24]): ≥ 5000 nM
